Laboratory results from publication PMC3359377, “A Novel Tool for Studying Auxin-Metabolism: The Inhibition of Grapevine Indole-3-Acetic Acid-Amido Synthetases by a Reaction Intermediate Analogue” (PLoS ONE, 2012).

T1: GH3-1 (Vitis vinifera, UniProt F6H697)
T1 construct: gene GH3.1_2
T1 sequence (F6H697 1-598): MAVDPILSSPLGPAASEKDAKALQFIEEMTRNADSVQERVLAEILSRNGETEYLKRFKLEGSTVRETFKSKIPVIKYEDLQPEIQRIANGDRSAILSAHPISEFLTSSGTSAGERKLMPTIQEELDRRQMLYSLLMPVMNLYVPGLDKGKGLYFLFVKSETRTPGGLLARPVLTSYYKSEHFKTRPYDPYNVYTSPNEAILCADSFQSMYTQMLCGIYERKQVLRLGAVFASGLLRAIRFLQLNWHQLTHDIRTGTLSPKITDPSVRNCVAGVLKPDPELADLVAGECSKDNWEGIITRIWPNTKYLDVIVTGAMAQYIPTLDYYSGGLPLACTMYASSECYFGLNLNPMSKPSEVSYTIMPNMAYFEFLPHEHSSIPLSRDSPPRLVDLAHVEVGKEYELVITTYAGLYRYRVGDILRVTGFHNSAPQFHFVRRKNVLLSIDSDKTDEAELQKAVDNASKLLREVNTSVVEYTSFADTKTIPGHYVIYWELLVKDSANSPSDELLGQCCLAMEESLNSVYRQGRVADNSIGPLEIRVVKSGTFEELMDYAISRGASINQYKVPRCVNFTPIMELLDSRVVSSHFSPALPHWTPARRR

B1: GH3-1 (Vitis vinifera) (protein)
chain: T1 sequence (F6H697 1-598)

Tests used:
[1] = molecular target: T1, GH3-1; assay: IAA-Asp formation by LC-ESI-MS/MS with recombinant enzyme; Dixon plots; assay type: biochemical
[2] = substrate: Nc1ncnc2c1ncn2[C@@H]1O[C@H](COP(=O)(O)OP(=O)(O)OP(=O)(O)O)[C@@H](O)[C@H]1O; assay: Michaelis-Menten kinetics (Km), LC-ESI-MS/MS of IAA-Asp; assay type: biochemical, Vitis vinifera; conditions: Mg2+ catalytic site
[3] = substrate: O=C(O)Cc1c[nH]c2ccccc12; assay: as above; assay type: biochemical, Vitis vinifera; conditions: MgATP catalytic site

Molecule | Ki [1] [nM] | Km [2] [µM] | Vmax [2] [µmol/min/mg] | kcat [2] [s⁻¹] | Km [3] [µM] | Vmax [3] [µmol/min/mg] | kcat [3] [s⁻¹]
Nc1ncnc2c1ncn2[C@@H]1O[C@H](COP(=O)(O)OCCc2c[nH]c3ccccc23)[C@@H](O)[C@H]1O [AIEP, adenosine-5′-[2-(1H-indol-3-yl)ethyl]phosphate] | 200 | – | – | – | – | – | –
B1 | – | 13.2 ± 1.4 | 0.261 | 0.3 | 21.1 ± 1.4 | 0.384 | 0.442
